Measured values taken from patent publication US20250297004A1, “NECTIN-4 BINDING AGENTS” (INNATE PHARMA, priority 2022, published 2025).

Assays:
[1] = system: SUM190 cells subcutaneously engrafted in CB17-SCID mice; assay: In vivo efficacy of Dxd and exatecan ADCs in SUM190 model; parameters: species or system mouse; conditions: single i.v. injection 10 mg/kg; FIG. 9C
Procedure: Human breast cancer cell line SUM190PT was cultured in the following cell culture medium containing Ham's F12, FBS 1 g/L, HEPES 10 mM, Ethanolamine 5 mM, Insulin 5 μg/mL, Hydrocortisone 1 μg/mL, Apo-Transferrin 5 μg/mL, Triiodo Thyronine (T3) 6.7 ng/ml, Sodium selenite 8.7 ng/ml.
Immunodeficient CB17-SCID mice were used at 7 to 8 weeks of age. […] The ggfg-Dxd linker will release Dxd (deruxtecan) upon cleavage and the PEG (8U)-Val-Ala-PAB-Exatecan linker will release exatecan upon cleavage.
SUM190 cells were subcutaneously engrafted in CB17-SCID immunodeficient mice at the dose of 0.5 million in 100 μl of Matrigel containing growth factor diluted at ½ in PBS. At day 21, when tumors reached a mean volume at 146.9±63.2 mm^3 or 213.2±77.5 mm^3 depending on the experiment, mice were randomized into groups of 8 or 9 mice depending on the experiment and treated intravenously with a single injection of 3 or 10 mg/kg body weight ADC or PBS as control. Tumor growths were followed twice a week. Kaplan Meier survival curves were established by using GraphPad Prism V7 software according to the following criteria: when the tumor volume reached 1500 mm^3, mice were euthanized and considered dead on the day of sacrifice (D). When tumors were highly necrotic, mice were euthanized and considered dead on the same day (D).

[2] = system: MC-38 cells endogenously expressing MDR1 P-glycoprotein (Pgp), engineered to express Nectin-4; assay: In vitro efficacy of ADCs in Pgp-expressing cancer model (CTG); assay type: cell-based, murine
Procedure: MC-38 cells that endogenously express MDR1 P-glycoprotein (Pgp) were engineered to express Nectin-4 and cultured in DMEM+10% FBS. Cells were either treated with vehicle (DSMO) or with cyclosporin A (5 μM, stock solution in DMSO) known to act as an inhibitor of Pgp, in presence of ADCs.
The ADCs and the equivalent isotype control ADCs were used at dose range from 150 to 2.3 10^−3 nM. After five days of co-incubation with cells, cell viability was measured by addition of Cell Titer Glo™ (CTG) substrate. Luminescence vs. Ab concentration was plotted.

B1: 5E7-exatecan: 5E7 conjugated to the exatecan linker PEG (8U)-Val-Ala-PAB-Exatecan (drawing 79), DAR=8 (conjugate)
VH: QVQLQQPGAELVKPGASVKLSCKASGYIFTSYWMHWVKQRPGQGLEWIGEIDPSDSYTNYNQKFKGKATLTLDKSSSTTYMQLSSLTSEDSAVYYCVRGYGNYGDYWGQGTTLTVSSASTKGP
VL: DVVMTQAAFSNPVTLGTSASISCRSSKSLLHSNGITYLYWYLQKPGQSPQLLIYQMSNLASGVPDRFSSSGSGTDFTLRISRVEAEDVGVYYCAQNLELPWTFGGGTKLEIKRTVAAP
[1]
  efficiency in controlling tumor growth in mice: higher efficiency in controlling tumor growth in mice compared 5E7 conjugated with ggfg-Dxd
[2]; 150 nM ADC, normalized to control antibody, cyclosporin A 5 μM, FIG. 10B
  anti-tumor activity in presence or absence of the Pgp inhibitor cyclosporine: highly effective
[2]; MC-38 Pgp/Nectin-4 cells, 5 days, setting of drug resistance, FIG. 10A
  decrease of cell viability (luminescence): highly potent to decrease cell viability
